The values below come from a protein production outcome set (Wang et al. 2014).

A short description of this series: label from the status in PepcDB records.
As for “TIDRGIQTQIESLVERWNSEFKRSDIRNLAILVIDIRTNQAIAYCGNVHFDKEQSGNQVDVIRSPRSTGSILKPFLYYAMLQEGEILPNTLLPDIPVNINGFTPQNFNLQFEGAVPASEAIARSLNIPSVTMLQRYGVPKFHSFLKQIGLTTLNRPSSHYGLSLILGGAEATLWDITSAYANMGRSLNRLPQFPCTLLLSDSTSVHRPSFQSGAVWQTFDAIKEVNRPEEIDWRTIPSMQTIAWKTGTSYGFRDAWAVGVTPKYAVGVWVGNATGEGKPGLVGARTAGPVLFDVFNLL”, the protein production result is “failed”.
The result for “TKDFTWQTDWTFSLNNEKIKELAGGATYDSTGPWMVGEPLNSFYDFQYDRIWQNTQEDNHLMDVYRSLGLTFLPGQYKIVDQ” reads “failed”; that for “TKEHRAAARKIAGESFVLLKNEGLSPTLAPVLPLSPTGTIAVIGPLANTRSNMPGTWSVAAVLDKSPSLVEGLTEWVGNQGKILYAKGSNLIGDAAYEERATMFGRSLNRDNRTDQQLLDEALKIASQADVIVAALGESSEMSGESSSRTNLNLPDVQHTLLEALLKTGKPVVLVLFTGRPLVLNWEQEHVPAILNVWFGGSEAGPAIGDVLFGAVNPGGKLTMTFPKSVGQIPLYYAHKNTGRPLKEGKWFEKFRSNYLDVDNDALYPFGYGLSYTTF”, “failed”; that for “TKKDVHDLFLNHVNSNAVKTRKMMGEYIIYYDSVVIGGLYDNRLLVKATKSVRHQLQDNTLVSPYPGAKEMILIPDITEAINLTNLFELIKNDLKN”, “failed”.
The result for “TLEQLPSAQSTLVSLDANNGALRALVGGFSFTANKFNRATQARRQPGSSFKPFVYSAALEKGFNPASIVPDAPVIFRDRRGHTWSPQNDDGKFQGPMRIRDALVQSRNLVSVRLLDAIGIDFARNYITQFGFEENEIPPNLSMSLGTASLTPLSIARGYAVFANGGFRIDPWLIDEIHDREHKLIFKNNPKVACSSCTSANTNVTQSTSHLVDGFNFGAPTKTEPSKPVKNNNEPTQTIPSPDPNTPMAPRAIDERVVFQLVSMMRDVVLRGTATAARSLNRQDIAGKTGSTNEHRDAWFSGFGGPYVTTVWVGRDDFQSLGYREYGGKAALPIWIEYMRTALKDKPIARN” reads “failed”.
The result for “TLEWPELLQQCEQLNKPNQINLNPALLWQCQGVGSAPPASNLRESRIKAVLAINPVTNPIFGPDGMKNLAVPTLIVAGSKDIFAPPVPEQIIPFSLIEGVNKYLLLVQNGTHLSFLEDTDNLPEKIVGPGQDLAYTYMKSLGLAFFDLYLQQDSSFKPYLTDSVVQQMSQEPLPLQLVPSL” reads “failed”; that for “TLGKETKTTVHKFGLEPPSELIQKQLRANLDDDIWEVIRSRKIDGEHVILDKDYFFRKHVPHLTKEICENSIYEYIEGELGLSISYAQKEIVAEPCTDEDRELLDLRGYDHMVVVRNYVFLEDTSLFQYTESRHRLDKFRFVDFARRGK”, “not failed”; that for “TNPQAVIGDSPTTSATQSKAVVVEFSDFQCPYCAKAHDTLKQLLAKHPGEITLVYKHLPLIPIHNEAMPAAKAAWAATQQGKFWEYHDALFSNQKQLGEALYLDIAKKLNLDLEKFNSDRLLADAAISKDIQIAQKLAIAGTPFFIMNSKTFSGGIDLSEIENKL”, “failed”.
For the sequence “TPLLAILFIAQVSGSGRRVGVVGWPDLNYAGVLGYGGCYERIFAVPQQERTSLRVVTALAHGCDLVITRAGPTPRTYTPLQTQRFRNSLRSDAGCVIMMGDHVVSPAARLASAVVGYHGIGKGTGRIKAVEITVTGIAKGFYRTSRVIVGKHIAPAAEKTTMK”, the protein production entry is “failed”.
The result for “TRRIMQLVFTDVTKHKEYEETLRKEQQVVQDILDFQSSIVLVAGSDEGVLSANRSALDFFGFRDVKEFRMHYRCICEAFIDREGFLKNRHEAWLHEALLANQTGRDSKAIIKDRHSGEERIFVVKVGRYPRDSHKFIVSLTD” reads “failed”.
The result for “TSKQRYSGKVHLCVARYSYNPFDGPNENPEAELPLTAGKYLYVYGDMDEDGFYEGELLDGQRGLVPSNFVDFVQDNESRLAST” reads “not failed”.
Under “TSVKEFAMKHDHFVVQSPDKPAQQLLLLFHGVGDNPVAMGEIGSWFAPLFPDALVVSVGGAEPSGNPAGRQWFSVQGITEDNRQARVDAIMPTFIETVRYWQKQSGVGANATALIGFSQGAIMALESIKAEPGLASRVIAFNGRYASLPETASTATTIHLIHGGEDPVIDLAHAVAAQEALISAGGDVTLDIVEDLGHAIDNRSMQLALDHLRYTIPKHY” stands “failed”; under “TVASRLSDTKAAGEVKALDDFYKMLQHEPDRAFYGLKQVEKANEAMAIDTLLISDELFRHQDVATRSRYVRLVDSVKENAGTVRIFSSLHVSGEQLSQLTGVAAILRFPVP”, “not failed”.
As to “TVDLNMQRRAEETVQKAFQQARSRGLRADQIAVAAVDPRTHFVKVLVGGRDYEESQFNRAIQSQRQPGSAFKPFVYYSAFASGNYTPFSTIDDSPVSYPDGNGTYSPQNYGGSFSGTVSLYDALVTSKNVPAVKLGKAVGLEKVIELCRLLGIESPLQPVISLPLGAVGISPLEMASAYATFASNGWQSETTLILRVTDSQGNVLLDNTPQPRLVLDPWATASLTTVLQGVVNGGTGQAANLGDRPAAGKTGTTSSERDVWFVGYVPQLAAAVWIGNDDYRPMGTGTTGGGDAAPIWRAFMQEALKGEEPQYF”, the protein production result is “failed”.
Under “TYWDVDFPRLDQRDSTLTEADHIANVRAALLEAVEMRMVADVPVGCYLSGGIDSCSILGLASAVSQGPVKAFTIGFDDARYDETPIAAEMAEATGAEQDVMRLSGRELYGHMEQTLWHTERTIYNTLAVAKYLMSRHVNSVDYKVVMTGEGSDELFGGYPAFRRDMFLHGLEDLPQSDRQDWESLLQTNNSLVQGAMLAADQVDDPDLDAVVGFTPSCLQPWLACAPLVPDLLADEHRQALVEYSPGKAIAEQLNPQQLDGRHALDKAQYVWIKTMLEGQILTWGGDRVDMANSMEARPAFLDHHLAAAAVQVPPELRIKGKTEKYVLREAMAGLLPEVLYKREKFAFMAPPAHTEPEKWAQMKQLADDYLSDEAIDAAGLLSKEGVRALFARHDDPATTDAERVQMDAVINHLLG” stands “failed”.
“VAGKVEARKAALREKLIDLAEAQIEAEGLASLRARELARQADCAVGAIYTHFQDLNALTLEVNGRTFARLGAAVGAVVADGQDDHPNERLIAMSHAYLAFAREHPKLWRALFDVEMRSDGPVPQWYGHAMAQLFSYITTPLAKIFPESDDAELDLMTRTLFSSVHGIVLLGLENRISGVPGEQLKTMIRLLLEQVGR”: the protein production result is on record as “not failed”.
Under “VAITDNRGVITHVNEKFCDISQYEYYELVGTTHKIINSGFHPRSFFKQMWKTIAQGNIWKGEICNRTKQGKLYWVDTTIVPLKDNDGLLKNYISIRTDITQ” stands “failed”; under “VFEQELENGLRLFIIPKPGFQKTFVTYTTQFGSLDNQFKPLGQDQFVTVPDGVAHFLEHKLFEKEEEDLFTAFAEDNAQANAFTSFDRTSYLFSATDNIENNIKRLLTMVETPYFTKETVDKEKGIIAEEIKMYQEQPGYKLMFNTLRAMYQRHPIRVDIAGSVESIYDITKDDLYLCYETFYHPSNMVLFVVGDVNPEEICRIVKQH”, “failed”.
Consider “VINQVESASKVIDWPLALKRSANKADLAKEMLLGLVESLPETQLSIREAIDVQDIAQIKRLVHKLNGACCYTGTPNLAKITIQLETQLKMGLSTEELEPEFLEFFEHIEQVLFAVPEALKEMSEN”, for which the protein production entry is “failed”.
The result for “VIRDLQKLLASMEPSLNPGTYAFVVAPADIQIPQDQIVASVCEPEGQSLVIPEQLAHERGLPVTYSAAWITLTVHSDLAAVGLTATFAGALGQAGISCNVIAGVHHDHLFVPADQAQQAMAVLFDLQRAAA” reads “failed”.
Under “VKLVEEYIAANWNESLTIEKLVELTGMSARTVFKAFQRTRGYSPMAFAKRVRMERVRQLLLEAGGDASVGAIAVQCGFPHLGHFAKDYRKTFGENPSDTLARGRRFRGVR” stands “not failed”; under “VKMSDKWIEIEEILSGLIGDLTIAVTVLKDYEGKAFLREPQHQTKRQCIWRLCVYSIVINCRKYVELNQKYGKEFQALIPGHNHIRGVYNNEINKNTAIKKLRNHCVAHVSDKSKYLKPAEVQEEIIKMFDGNFADEFLDWICPDNISTTDKSESLVGVIELLRDAVSAKL”, “not failed”.
